Data: the DeepSol protein solubility set

Experiment: soluble on expression in E. coli; label from the status in PepcDB or PDB records

Row | Sequence | soluble on expression in E. coli
1 | MGSDKIHHHHHHKLRDEGDAALKAKDYATVVTKYGEYLKQNNYQDTARIFNCGYAANQAKNYAEAAKYFDMAVKMNYNVDDSYVGEAMAYRNLNKTEEFLTTVKEGLKVIPDGNKNKTNLEKLLYGYCIKQGQAAQKKGDLAGAEKMYKEVLAVSNKDYQSNAYYSLGAMLYGNGAKILQAATPIATSEPDKYNAEKAKADKDFKQAKEYLTKAVELDPKDENSKKILASINDILK | not soluble
2 | MGSDKIHHHHHHGDGNITTENIPVSEYDCLELEGGGMVVNYTQSDAPEGLEIKTDRNIFEKYEFNVENHKLKIRPKKEFRKHTNFRPTEFMVTANSRNLKKLAAAGSTHVNINSPLQAEEFEAGLAGSGIIQFHDTASFTNLKIEIAGSGDFVGHKVYCEELNGDMAGSNTIVLGGTVGIAEFSIAGSGTVRAFDCTMDELECKIAGSGDIEAFVVNKIKAEIAGSGSVKYKGDPQDIQKKVMGSGKIEKVE | not soluble
3 | MAEKSCSLTEFVGTAIGDTLGLVIANVDTALLDAMKLEKRYRSIGILGARTGAGPHIMAADEAVKATNTEVVSIELPRDTKGGAGHGSLIILGGNDVSDVKRGIEVALKELDRTFGDVYGNEAGHIELQYTARASYALEKAFGAPIGRACGIIVGAPASVGVLMADTALKSANVEVVAYSSPAHGTSFSNEAILVISGDSGAVRQAVTSAREIGKTVLATLGSEPKNDRPSYI | not soluble
4 | MSLLCLFAVFAFSCNEEMERLLTDDYPESGTEYTTGHVLMVVIDGASGIAVNEAYNTRKAPVIRSMTDKSLFTFYGLADNEEGVSKERGWANLLTGTTKNGLDVNQGIDELETPSFLQRLKEADENLKVSFYSSDTEFFGAFGSVANTKRKTSADSETADALIAEINGETISDIVVAQFGGVQQTGEQYGFWSNETTPTSEVIDAIYNVDAFIGKIMKALEARSRYVQENWLVVITSSYGGVYEGNVTPASEGHHHHHH | soluble
5 | MGGRQSSVTEERPRSNSVDTAQVRVSSQHSSSQRANVMTAAEFMQTMRNARFLSSSSDSNASEDDAGPSHSTTHGNRSRGLHATPGRLHGHHSRRSVPVFMMDMKCPVCHKVVPSDDADIHLVMCLTRPKITYNDDVLKDDKGECSICLEDLEAGHKIARLPCLCIYHKQCIDDWFKRKNCCPEHPGDD | not soluble
6 | TQLQLKDSMEKFGALYHSSSLGMLIVIEREIVDANHRALELLSYKKSDLLEQSLDTLCPTTADECRVDAMYRELQHGRNQFEAQMLDSHGETIDCLIEATLIQHNGHTALMLLLQDLS | not soluble
7 | MKTETPSVKIVAITADEAGQRIDNFLRTQLKGVPKSMIYRILRKGEVRVNKKRIKPEYKLEAGDEVRIPPVRVAEREEEAVSPHLQKVAALADVILYEDDHILVLNKPSGTAVHGGSGLSFGVIEGLRALRPEARFLELVHRLDRDTSGVLLVAKKRSALRSLHEQLREKGMQKDYLALVRGQWQSHVKSVQAPLLKNILQSGERIVRVSQEGKPSETRFKVEERYAFATLVRCSPVTGRTHQIRVHTQYAGHPIAFDDRYGDREFDRQLTEAGTGLNRLFLHAAALKFTHPGTGEVMRIEAPMDEGLKRCLQKLRNAR | soluble
8 | MAAWTPDLEAELSQLLKDWLKQQGRTQADLRRSLKAVSTRMPALLEVLEREHRLNGLSGLLARLCRVETEWHGGADHTSEAAEQSDPFGQLDLLLQEIRQDCPS | not soluble
9 | MGSDKIHHHHHHMRAVSIVGLGWLGLTLARHLKNLGWKVKGTKRTHEGVEQMRLIRLEAYHLELTPDINADPDDLTALLSVDALVINIPPSQYFFHLQHYVQGVKNLVNEALLNGLQHIIFISSTSVFPDVSGEFDEQSQIVPQSEMSKALLEIEQWLFELKDVDCDIIRFGGLVGEDRHPVYSLAGKDELSAGNMPINLVHVDDCARAIQLLLETPSSQRLYHLVAPQHPTRAEYYSQIAEKLALEAPHFICSEQDPRRVILANKICRELSFVYQCPDPYLMLFERK | not soluble
10 | GPVPTPPDNIQVQENFNISRIYGKWYNLAIGSTCPWLKKIMDRMTVSTLVLGEGATEAEISMTSTRWRKGVCEETSGAYEKTDTDGKFLYHKSKWNITMESYVVHTNYDEYAIFLTKKFSRHHGPTITAKLYGRAPQLRETLLQDFRVVAQGVGIPEDSIFTMADRGECVPGEQEPEPILIPRV | soluble
11 | MNNETSGKETASAPLCSPKLPVEKVQRIAKNDPEYMDTSDDAFVATAFATEFFVQVLTHESLHRQQQQQQQQVPPLPDELTLSYDDISAAIVHSSDGHLQFLNDVIPTTKNLRLLVEENRVRYTTSVMPPNEVYSAYVVNDTAPKPNIVEIDLDNDEDDDEDVTDQE | not soluble
12 | PKQRCRAPACDHFGNAKCNGYCNECFQFKQMYG | soluble
